Data from patent US20160362487A1 (Regeneron, published 2016).

Experiments:
[1] = target: T1, human IL-33 (R&D Systems, #3625-IL-010/CF) (human, UniProt O95760 112-270); test: cell-based or functional assay
T1 sequence (looked up): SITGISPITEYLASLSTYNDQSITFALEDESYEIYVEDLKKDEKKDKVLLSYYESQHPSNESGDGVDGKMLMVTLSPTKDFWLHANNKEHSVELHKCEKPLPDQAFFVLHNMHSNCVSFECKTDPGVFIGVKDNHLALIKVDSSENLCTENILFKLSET

[2] = target: T2, cynomolgus monkey IL-33 expressed with a C-terminal hexahistidine tag (cynomolgus monkey); test: cell-based or functional assay
T2 chain: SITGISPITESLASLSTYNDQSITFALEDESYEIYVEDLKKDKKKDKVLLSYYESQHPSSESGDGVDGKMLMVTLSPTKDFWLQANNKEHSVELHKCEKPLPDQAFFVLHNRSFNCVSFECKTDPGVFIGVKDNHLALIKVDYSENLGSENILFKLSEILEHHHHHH

[3] = target: T1, human IL-33 (R&D Systems, …); test: SPR 25C pH7.4, mAb captured
Procedure, shortened: (§1)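 Anti-IL-33 mAbs were captured on amine-coupled anti-mouse or anti-human Fc surfaces, and IL-33 association was followed for 4 min and dissociation for 10 min in ADA pH 7.4, 0.15M NaCl, 3 mM EDTA, 0.05% Tween-20. Sensorgrams were fit to a 1:1 model; KD and t½ came from the rate constants.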

[4] = target: T2, cynomolgus monkey IL-33 expressed with …; test: SPR 25C pH7.4, mAb captured
Procedure, shortened: as §1

[5] = target: T1, human IL-33 (R&D Systems, …); test: BLI; hIL-33 pre-mixed with mAb-2 H1M9565N
Procedure, shortened: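 Octet bio-layer interferometry competition at 25 °C in HBS-ET (pH 7.4). Human IL-33 (100 nM) pre-mixed ≥2 h with 500 nM mAb-2, then flowed 4 min over biosensors bearing captured anti-IL-33 antibody after Fc-site saturation. Binding response (nm) recorded at the end of each step.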

[6] = target: T2, cynomolgus monkey IL-33 expressed with …; test: BLI; captured MfIL-33-6His, mAb-1 step with Isotype control
Procedure, shortened: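 Octet bio-layer interferometry at 25 °C in HBS-ET (HEPES pH7.4, 0.1 mg/ml BSA), shaking at 1000 rpm. Antigen-loaded sensors were saturated 5 min with 50 μg/mL mAb-1 (or isotype control or buffer), then exposed 4 min to 50 μg/mL mAb-2. Maximum response per step was recorded to score competition.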

IC50, inhibition of 10 pM hIL-33 activation of HEK293/hST2/NFkB-luciferase cells [1]: 2e-09 M
IC50, inhibition of 5 pM MfIL-33-6His activation of HEK293/hST2/NFkB-luciferase cells [2]: 4.9e-08 M
Kd [3]: 0.678 nM
koff [3]: 0.000274 s⁻¹
kon [3]: 404000 M⁻¹ s⁻¹
t½ [3]: 42 min
Kd [4]: 3.82 nM
koff [4]: 0.00123 s⁻¹
kon [4]: 321000 M⁻¹ s⁻¹
t½ [4]: 9 min
mAb-1 Binding to the Pre-complex of mAb-2 & hIL-33 [5]: 0.35 nm
mAb-2 Binding to the Pre-complex of mAb-1 & MfIL-33-6xHis [6]: 0.21 nm
B1: H1M9559N (antibody, mouse IgG1, V domains shown)
VH: QVQLVESGGGVVQPGRSLRLSCAASGFTFSSYGMHWVRQAPGKGLEWVAVIWYDGRNKYYTDSVKGRFTISRDNSKNTLYLQMDSLRAEDTAVYYCARERYISSYYGGFDPWGQGALVTVSS
VL: DIQMTQSPSSVSASVGDRVTITCRASQGISSWLAWYQQKPGKAPKVLIYAASSLQSGVPSRFSGSGSGTDFTLTISSLQPEDFATYYCQQANSFPFTFGPGTKLDIK
notes: Human variable domains, mouse IgG1 Fc (H1M)
